Results from patent US12344890B2, “Process for cognate nucleotide detection in a nucleic acid sequencing workflow” (priority 2017, dated 2025).

Tests used:
[1] = tested on: Nc1nc2c(ncn2[C@H]2C[C@H](O)[C@@H](COP(=O)(O)OP(=O)(O)OP(=O)(O)O)O2)c(=O)[nH]1; assay: purified protein, by the assay type; conditions: other: incorporation assay, Therminator DNA polymerase; averaged from three trials
[2] = tested on: Nc1ncnc2c1ncn2[C@H]1C[C@H](O)[C@@H](COP(=O)(O)OP(=O)(O)OP(=O)(O)O)O1; assay: purified protein, by the assay type; conditions: other: incorporation assay, Therminator DNA polymerase; averaged from three trials
[3] = tested on: Nc1ccn([C@H]2C[C@H](O)[C@@H](COP(=O)(O)OP(=O)(O)OP(=O)(O)O)O2)c(=O)n1; assay: purified protein, by the assay type; conditions: other: incorporation assay, Therminator DNA polymerase; averaged from three trials
[4] = molecular target: T1, Therminator™ DNA polymerase (Thermococcus sp., UniProt Q56366, A485L/D141A/E143A); format: biochemical, Thermococcus species 9° N; conditions: incorporation assay, averaged from three trials
T1 construct: purchased New England BioLabs
Source text: Each nucleotide included a fluorescent moiety constructed on a Cy-5 scaffold. […] In the case of the labeled dUTP analog, the comparison was against dTTP.

T1 sequence (Q56366 whole entry D141A/E143A/A485L): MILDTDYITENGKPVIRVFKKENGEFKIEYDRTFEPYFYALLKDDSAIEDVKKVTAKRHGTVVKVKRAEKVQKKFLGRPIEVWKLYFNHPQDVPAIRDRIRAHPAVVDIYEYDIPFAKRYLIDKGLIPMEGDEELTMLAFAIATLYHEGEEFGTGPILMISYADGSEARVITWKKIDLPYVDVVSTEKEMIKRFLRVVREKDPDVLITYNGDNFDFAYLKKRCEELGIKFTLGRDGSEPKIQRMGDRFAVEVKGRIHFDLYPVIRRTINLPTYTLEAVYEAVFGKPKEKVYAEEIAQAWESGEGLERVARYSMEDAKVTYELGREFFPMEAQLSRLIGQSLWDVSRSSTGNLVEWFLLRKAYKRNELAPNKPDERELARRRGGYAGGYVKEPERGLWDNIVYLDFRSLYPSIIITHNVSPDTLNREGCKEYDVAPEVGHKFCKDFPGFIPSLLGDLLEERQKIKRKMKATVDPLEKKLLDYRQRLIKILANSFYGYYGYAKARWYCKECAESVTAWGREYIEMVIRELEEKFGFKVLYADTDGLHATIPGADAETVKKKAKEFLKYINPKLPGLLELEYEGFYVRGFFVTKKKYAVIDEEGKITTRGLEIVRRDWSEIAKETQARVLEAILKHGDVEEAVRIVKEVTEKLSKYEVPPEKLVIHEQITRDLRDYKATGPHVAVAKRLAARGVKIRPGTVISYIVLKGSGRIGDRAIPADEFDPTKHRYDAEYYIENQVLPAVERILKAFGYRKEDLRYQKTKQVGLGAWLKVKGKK

Row | Molecule | Km [1] | Km [2] | Km [3] | Km [4]
1 | Therminator™ DNA polymerase (Thermococcus sp. 9oN-7; A485L/D141A/E143A) | 0.23 µM | 0.05 µM | 0.82 µM | 
2 | Cc1cn([C@H]2C[C@H](O)[C@@H](COP(=O)(O)OP(=O)(O)OP(=O)(O)O)O2)c(=O)[nH]c1=O [dTTP, 2′-deoxythymidine-5′-triphosphate] |  |  |  | 0.92 µM
